Measurements taken from patent US10125184B2, “Apolipoprotein E polypeptides and their use” (priority 2011, dated 2018).

What was measured:
JFH1 HCVcc = experiment: HCVcc binding assay (real-time PCR of vRNA, Huh7.5.1 cells); type: cell-based, Hepatitis C virus; conditions: 2.7 μM, 2 hours at 4° C., relative to scrambled peptide
Description: FIGS. 5A-5D. hEP inhibits HCV entry at the attachment step. (A) HCVcc-luc was first mixed with either scrambled peptide or hEP-2 (20 μg/ml) for one hour at room temperature. In Group 1, mixed virus was directly added to Huh7.5.1 cells, whereas in Group 2, virus was purified through ultracentrifuge at 28,000×g for 4 hours in order to remove peptide, and then used to infect Huh7.5.1 cells. **p<0.005. (B) The kinetics of hEP- and bafilomycin A1-mediated inhibition were determined by time-of-addition assays, as described in the examples section. Fitted lines represent sigmoidal time-dependent curves (mean of n=3; error bars, s.d.). […] Heparin (200 μg/ml), anti-CD81 monoclonal antibody (5 μg/ml), hEP (20 μg/ml), or bafilomycin A1 (10 nM) were present in the media either continuously, during the 4° C. incubation only (attachment), or during the 37° C. incubation phase only (post-attachment). % Inhibition was calculated as 100-percent infection relative to control infections containing DMSO or an isotype antibody control containing 0.01% sodium azide (for anti-CD81 only) (mean of n=3; error bars, s.d.). (D) The effects of hEP (2.7 μM) or scrambled peptide on HCV binding were determined as described in the examples section. Results were calculated as relative RNA copies with numbers obtained from the scrambled peptide treated wells set to 100 (mean of n=3; error bars, s.d.). **p<0.005. […]

SR-BI = experiment: Immunoblot of SR-BI; type: cell-based
Description: (§1) FIGS. 4A-4C. (A) Huh7.5.1 cells seeded in a 12-well plate were treated with hEP-2 (20 μg/ml) for indicated time periods. Cells were stained with a mouse IgG (istotype control) or the anti-LDLR antibody followed by flow cytometric analysis. An overlay of 7 histograms is presented and the Δ median fluorescence intensity (ΔMFI, LDLR stain minus isotype control stain) of each sample is indicated to the upper right of the figure. (B) Cells were stained with anti-CD81 antibody and analyzed similarly as in A. (C) Immunonblots of SR-BI, CLDN1, and OCLN in the presence of hEP-2 or scrambled peptide.

CD81 = CD81 level on Huh7.5.1 cells by flow cytometry; type: cell-based
Description: as §1

## EELRVRLASHLRKLRKRLLRDADDLQKRLAVYEEQAQQIRLQAEAFQARLKSWFEPLVEDM [hEP-1]
JFH1 HCVcc
  Amount of viral RNA (vRNA) bound to cells: decreased significantly

B1: hEP: human apoE dual-domain peptide: helix 4 of N-terminal domain plus major lipid-binding region; expressed in bacteria (protein)
peptide: EELRVRLASHLRKLRKRLLRDADDLQKRLAVYEEQAQQIRLQAEAFQARLKSWFEPLVEDM
SR-BI
  Effect on level of SR-BI: did not affect
CD81
  Effect on level of CD81: did not affect
